The results in this text go back to paper PMC4865801.

Take KKLITFILKKTREK [β4-peptide]: the cells with resurgent currents (whole-cell patch clamp, 100 µM β4-peptide in the pipette, 50 nM ATX-II in the bath) (out of 15 cells) with hNav1.7/ΔL955 (human) turned out to be 1. The share of cells with resurgent currents (whole-cell patch clamp, 100 µM β4-peptide in the pipette, 50 nM ATX-II in the bath) stood at 42% with hNav1.7 WT (human) and 55% with hNav1.7/V948C (human).
